# In publication PMC8825819, “Structure of Escherichia coli O157:H7 bacteriophage CBA120 tailspike protein 4 baseplate anchor and tailspike assembly domains (TSP4-N)” (Scientific Reports, 2022):
# B1: Tailspike protein 1 of bacteriophage CBA120 (natural protein)
# chain: MNEMFSQGGKGSTGILTNKQAVARHFGVKQSEVVYFSVGVDLGGYKVIYDKETQRAYSLPVGIASGTTAVSLSTAAVLVHSAGSVDLGSLAVSREEYVTLPGSFDSGSTLNVKNELLTYTDGKYRWDGILPKTVAPGSTPASTGGVGLGAWISVGDASLRTQLANGDGSLIGIHPQGTLNNVLTVRTPEQYNAVGDGIADDTSKLKEMLSDINNVPETLPDAAAVNSYMEQVAVKIDLTKLYRFTETLYIPPGVSIEIPTSNFFTRECKQGLFYDPVDKNTAAISLMVYRKQPDGSYKLNKDVDYYPTGLDIDNGDAITCARKIDINNLNLITAPGVKVGVKWIGGAGCTTKGLSIGENTGSDITTARLPRVGLLQSASWGSIHENLRILYKTQGAVFIDSNGGAAVNNAYISRLGNTNGELEQAVYKPAGFTEVGDVAVTQFAGSEVKFNSPIIEQASFDFVHAGRDTDSYGLFMVDKPHIESSGGKKKHSFYLINTSSNVTLSGVGLSGQDPDLDSMYFLKNCPETARNVVRGQMPISGVKLVRGTGNYPTLVLDCTNMGSQFQFGEVGDIFYIKDVVGVKADTLYIDPVNGNNYNWGTNGTKPIRELTNIAKICQLFRCKSVYLNAGESVITSNTELPMVVFEGPGSLKANSGSSFLIKAGGTLSLIGLSGISTDGGHMFRVSTVEKVNIHTNCSVNAGAAYVVLSEVQGNIEYRQLFYSVNCSKYIGATAGQTIAGIMVKTATRPTGIDAAPVDGNVSLTYKIIES
# notes: Homotrimer by SV (MWcalc of the trimer 248 kDa); also called TSP1
# B2: Tailspike protein 2 of bacteriophage CBA120 (natural protein, UniProt G3M190 1-921, looked up)
# chain: MTRNVEELFGGVITAPHQIPFTYKSNVGGETFLSLPFYPVTGVVTINGGMQVPLDNFEIEGNTLNLGRALSKGDVVYCLFDKILSPEDTAKGIRIYKFQAVGGETEFTPDFTSYGVQSLYIGGEYKTPEIEYSYDSTTGKVSLQTALSAGVWVVAEMSVKQPNISPAFDRSIQEIARSANVKDSEVIVSTDTISLLDGKKVVYDIATQTSYGLPTIPDGSVISSVSAGKLNYNPGDVQVDLLPLEDSFINVINTLGRNDGAKYIGECHSVADLRNTEPTMDGQRIILKQHTAGTLLGGGVFRALIDGTGKTDNNGTVIKTVGGAAWLRVNADRVNPFMFGALGGSNDDTIPVQSCVDSGKATQLTDAHYVSNIQLKYNTSSIYGSGLHYSRLHQLPSATGNCITIKDTCSLIVLDAFGVYGTGAQQGTSFTAGTTGIYVETPSGLSADYPFHTTADPRRDLCISKVHIAGFDEYGLNIDSGNFSVTTDSLLVNHINQVGVRCATTDWTWTNIQVNTCGKQCLVLDGCGNGRIIGGKFIWANWQPYGTVGQFPGITINNSQNMVINGIEVQDCGGNGIEISESYSISMNGLNTNRNGINANNTFYNIVFNKSDAVINGFVGLNYAANSGSGANSSAGNFQFLSNDCSVTINGVVETGYMGINFIGDNNIINPTNSDLSINGLVNYSKTGLQTMNETPTFDGVSTTPVYVSVPSSVGQVNGLRLSQANKDKLLYSRTAGPEGITMAAVIVPTISGAEVFNFMAIGSGFSDTSNSLHLQLVIDASGKQTIALLLGGDGTTQILSGDLPNDLKLQSGVPYHIAIGAKPGYFWWSILNIQTGKRIRRSFRGAYLAVPFNSIFGLTSSLTFFSDSNAGGDACSGVGAKVYVGMFSSENDYVASRYYNLINPVDPTKLISYRILDSSI
# notes: Homotrimer by SV (MWcalc of the trimer 297 kDa); also called TSP2
# B3: TSP1 head, residues 14-166 (D1-D2 domains and the alpha-helical neck, without the 13 N-terminal amino acids) (domain or fragment, bacteriophage CBA120, UniProt G3M189 14-166, looked up)
# chain: GILTNKQAVARHFGVKQSEVVYFSVGVDLGGYKVIYDKETQRAYSLPVGIASGTTAVSLSTAAVLVHSAGSVDLGSLAVSREEYVTLPGSFDSGSTLNVKNELLTYTDGKYRWDGILPKTVAPGSTPASTGGVGLGAWISVGDASLRTQLANG
# notes: TSP1 of phage CBA120, D1-D2 head and neck, residues 14-166; Trimerisation was promoted by Zn2+; also called TSP1_(14-166); TSP1-N_(14-166)
# Key:
# [1] = target: TSP4 devoid of the AD-XD1 domains, residues 185-1036 (bacteriophage CBA120) (UniProt G3M192); assay: AUC; sedimentation velocity of single proteins and of mixtures, PBS pH 7.4, 20 °C, absorbance at 280 nm, 30-50 krpm; c(s) by SEDFIT; Kd and koff by Lamm equation modelling with a two-site heterogeneous association model A + B + B = AB + B = ABB (A: TSP4-N335 hexamer, B: partner TSP trimer; two symmetric sites, no cooperativity)
# [2] = target: TSP4-N253 (AD-XD1-XD2 of TSP4, lacking XD3) (bacteriophage CBA120) (UniProt G3M192); assay: as above
# [3] = target: TSP4-N490 (AD-XD1-XD2-XD3 region followed by the D1-D2 head region of TSP4) (bacteriophage CBA120) (UniProt G3M192); assay: as above
# [4] = target: TSP4-N335, the 335 N-terminal residues of tailspike protein 4 of bacteriophage CBA120 (AD-XD1-XD2-XD3) (bacteriophage CBA120) (UniProt G3M192); assay: as above
# [5] = target: TSP4-N181 (AD-XD1 of TSP4) (bacteriophage CBA120) (UniProt G3M192); assay: as above
# [6] = target: the molecule itself; assay: as above
# [7] = target: TSP4-N335, the 335 N-terminal residues of tailspike protein 4 of bacteriophage CBA120 (AD-XD1-XD2-XD3) (bacteriophage CBA120) (UniProt G3M192); assay: AUC; sedimentation equilibrium, PBS, 20 °C, 3 or 4 speeds (3000-12,000 rpm); global fit with SEDPHAT; for mixtures the two-site model A + B + B = AB + B = ABB
# [8] = target: TSP4-N335, the 335 N-terminal residues of tailspike protein 4 of bacteriophage CBA120 (AD-XD1-XD2-XD3) (bacteriophage CBA120) (UniProt G3M192); assay: AUC; sedimentation velocity of single proteins and of mixtures, PBS pH 7.4, 20 °C, absorbance at 280 nm, 30-50 krpm; c(s) by SEDFIT; Kd and koff by Lamm equation modelling with a two-site heterogeneous association model A + B + B = AB + B = ABB (A: TSP4-N335 hexamer, B: partner TSP trimer; two symmetric sites, no cooperativity); remark: listed apart in the source
# [9] = target: TSP4-N181 (AD-XD1 of TSP4) (bacteriophage CBA120) (UniProt G3M192); assay: as above; remark: listed apart in the source
# [10] = target: TSP4-N490 (AD-XD1-XD2-XD3 region followed by the D1-D2 head region of TSP4) (bacteriophage CBA120) (UniProt G3M192); assay: as above; remark: listed apart in the source
# [11] = target: TSP4-N335, the 335 N-terminal residues of tailspike protein 4 of bacteriophage CBA120 (AD-XD1-XD2-XD3) (bacteriophage CBA120) (UniProt G3M192); assay: AUC; sedimentation velocity in 50 mM TRIS pH 8.0 or HEPES pH 7.3, 150 mM NaCl, 0.1-0.5 mM Zn2+ (100 μM ZnCl2 in the legend)
# [12] = target: the molecule itself; assay: as above
molecule,measurement,setting,value
"TSP4 devoid of the AD-XD1 domains, residues 185-1036 (from UniProt G3M192 185-1036) (domain or fragment)",stoichiometry N,[1],3
"TSP4-N253 (AD-XD1-XD2 of TSP4, lacking XD3) (from UniProt G3M192 1-253) (domain or fragment)",stoichiometry N,[2],6
TSP4-N490 (AD-XD1-XD2-XD3 region followed by the D1-D2 head region of TSP4) (from UniProt G3M192 1-490) (domain or fragment),stoichiometry N,[3],6
"TSP4-N335, the 335 N-terminal residues of tailspike protein 4 of bacteriophage CBA120 (AD-XD1-XD2-XD3) (from UniProt G3M192 1-335) (domain or fragment)",stoichiometry N,[4]; mixed monomer and hexamer sample,3
same,stoichiometry N,[4]; purified single-species sample,6
TSP4-N181 (AD-XD1 of TSP4) (from UniProt G3M192 1-181) (domain or fragment),stoichiometry N,[5],6
B1,stoichiometry N,[6],3
same,Kd,[7],80 nM
same,Kd,[8],60 nM
same,koff,[8],0.0001 s⁻¹
same,stoichiometry N (TSP1:TSP4-N335 (chains)),[8]; one trimer bound per hexamer,0.5
same,stoichiometry N (TSP1:TSP4-N335 (chains)),[8]; two trimers bound per hexamer,1
B2,stoichiometry N,[6],3
same,Kd,[7],75 nM
same,stoichiometry N (TSP2:TSP4-N181 (chains)),[9]; one trimer bound per hexamer,0.5
same,stoichiometry N (TSP2:TSP4-N181 (chains)),[9]; two trimers bound per hexamer,1
same,Kd,[8],110 nM
same,koff,[8],0.00025 s⁻¹
same,stoichiometry N (TSP2:TSP4-N490 (chains)),[10]; one trimer bound per hexamer,0.5
same,stoichiometry N (TSP2:TSP4-N490 (chains)),[10]; two trimers bound per hexamer,1
B3,stoichiometry N (TSP1 (14-166):TSP4-N335 (chains)),[11]; one trimer bound per hexamer,0.5
same,stoichiometry N (TSP1 (14-166):TSP4-N335 (chains)),[11]; two trimers bound per hexamer,1
same,stoichiometry N,[12],3
